Target: the molecule itself
Assay: SEC

B1: full-length human adiponectin (ligand)
chain: ETTTQGPGVLLPLPKGACTGWMAGIPGHPGHNGAPGRDGRDGTPGEKGEKGDPGLIGPKGDIGETGVPGAEGPRGFPGIQGRKGEPGEGAYVYRSAFSVGLETYVTIPNMPIRFTKIFYNQQNHYDGSTGKFHCNIPGLYYFAYHITVYMKDVKVSLFKKDKAMLFTYDQYQENNVDQASGSVLLHLEVGDQVWLQVYGEGERNGLYADNDNDSTFTGFLLYHDTN
Does B1 bind?
Result: binds
